Here are results for 27 molecules from US20150037348A1 (AbbVie / Abbott, published 2015).

In general, koff refers to a measure of how fast the partners let go of each other. By IC50 is commonly meant the concentration needed to halve the response being measured.

The chains are these.
B1: Y61 (scFv, V domains shown)
VH: QVQLVQSGGGVVQPGRSLRLSCAASGFTFSSYGMHWVRQAPGKGLEWVAFIRYDGSNKYYADSVKGRFTISRDNSKNTLYLQMKSLRAEDTAVYYCKTHGSHDNWGQGTMVTVSS
VL: SYVLTQPPSVSGTPGQRVTISCSGGRSNIGSNTVKWYQQLPGTAPKLLIYGNDQRPSGVPDRFSGSKSGTSASLAITGVQAEDEADYYCQSYDRGTHPALLFGTGTKVTVL
notes: also called Y61 scFv; clone Y61; not shown: scFv linker and any tags
B2: A4 (scFv, V domains shown)
VH: B1 VH
VL: B1 VL with T96R, H97N, L101T
notes: scFv clone
B3: Y45 (scFv, V domains shown)
VH: B1 VH
VL: B1 VL with H97D, L100I, L101V
notes: scFv clone
B4: Y139 (scFv, V domains shown)
VH: B1 VH
VL: B1 VL with T96S, L101T
notes: scFv clone
B5: AO3 (scFv, V domains shown)
VH: B1 VH
VL: B1 VL with A99L, L100T, L101M
notes: scFv clone; only the CDR3s are tied to it
B6: Y174 (scFv, V domains shown)
VH: B1 VH
VL: B1 VL with H97T, L100P, L101E
notes: scFv clone
B7: Y38 (scFv, V domains shown)
VH: B1 VH
VL: B1 VL with A99S, L100I, L101T
notes: scFv clone
B8: A12 (scFv, V domains shown)
VH: B1 VH
VL: B1 VL with H97T, A99R, L100P, L101M
notes: scFv clone
B9: A5 (scFv, V domains shown)
VH: B1 VH
VL: B1 VL with A99S, L100M
notes: scFv clone
B10: G6 (scFv, V domains shown)
VH: B1 VH
VL: B1 VL with A99L, L100T, L101I
notes: scFv clone
B11: C6 (scFv, V domains shown)
VH: B1 VH
VL: B1 VL with T96Q, H97T, A99S, L100I, L101T
notes: scFv clone
B12: Y177 (scFv, V domains shown)
VH: B1 VH
VL: B1 VL with T96S, A99T, L101I
notes: scFv clone
B13: 26-1 (scFv, V domains shown)
VH: B1 VH with K97T
VL: B1 VL with R94S, G95S, T96L, H97W, P98G, A99S, L100R, L101V
notes: scFv; also called 26-1 (2, 3)
B14: 136-15 germline (scFv, V domains shown)
VH: B1 VH with Q6E, K84N
VL: QSVLTQPPSVSGAPGQRVTISCSGSRSNIGSNTVKWYQQLPGTAPKLLIYGNDQRPSGVPDRFSGSKSGTSASLAITGLQAEDEADYYCQTYDKGFTGSSVFGTGTKVTVL
B15: 73-B7 (scFv, V domains shown)
VH: B1 VH with K97T, H102Q
VL: SYVLTQPPSVSGTPGQRVTISCSGGRSNIGSNTVKWYQQLPGTAPKLLIYGNDQRPSGVPDRFSGSKSGTSASLAITGVQAEDEADYYCQSYDSSLRGSRVFGTGTKVTVLG
B16: 149-7 (scFv, V domains shown)
VH: B1 VH with K97T
VL: B1 VL with G95D, T96F, H97T, P98G, A99S, L100R, L101V
notes: scFv
B17: 149-4 (scFv, V domains shown)
VH: B1 VH with K97T, G106S
VL: B1 VL with T96F, H97T, P98G, A99S, L100R, L101V
notes: scFv
B18: 103-7 (scFv, V domains shown)
VH: B1 VH with K97T, N104D
VL: B1 VL with G95D, T96F, H97T, P98G, A99T, L100R, L101V
notes: scFv
B19: 103-8 & 2 (scFv, V domains shown)
VH: B1 VH
VL: B14 VL with Q1S, S2Y, A13T, S25G, L79V
notes: scFv
B20: 70-1 (scFv, V domains shown)
VH: B1 VH with K97T
VL: B1 VL with R94S, G95S, T96L, H97R, P98G, A99S, L100R, L101V
notes: scFv
B21: 103-4 (scFv, V domains shown)
VH: B1 VH with K97T
VL: B1 VL with G30V, T96F, H97T, P98G, L100R, L101V
notes: scFv
B22: 78-34 (scFv, V domains shown)
VH: B1 VH with K97T, H99S, H102Y, N104Y
VL: B1 VL with T96F, H97T, P98G, A99S, L100R, L101V
notes: scFv
B23: 103-14 & 9 (scFv, V domains shown)
VH: B1 VH
VL: B1 VL with T96F, H97T, P98G, A99S, L100M, L101V
notes: scFv
B24: 103-8 (scFv, V domains shown)
VH: B1 VH
VL: B14 VL with Q1S, S2Y, A13T, S25G, L79V
notes: scFv
B25: 101-11 (scFv, V domains shown)
VH: B1 VH with K97T
VL: B1 VL with T96F, H97T, P98G, A99S, L100R, L101V
notes: scFv
B26: Y61-L50Y (scFv, V domains shown)
VH: B1 VH
VL: B1 VL with S1Q, Y2S, T13A, G25S, G51Y, V79L
B27: 79-1 (scFv, V domains shown)
VH: B1 VH with K97T, H99S, H102Y, N104Y
VL: B1 VL with R94S, G95S, T96L, H97W, P98G, A99S, L100R, L101V
notes: scFv

Positions count from the first letter of the chain named. Names and notes keep the numbering of the source. Values joined by “and” are separate entries in the source; they are usually repeats but may differ in a detail not shown here. Identical values can stand only once.

One assay has as its target T1, recombinant human IL-12 (rhIL-12) (human, UniProt P29459 23-219; P29460 23-328).
T1 construct: disulfide-linked p35/p40 heterodimer (p70); also called IL-12 p70; rec. human IL12
T1 sequence (looked up) 1: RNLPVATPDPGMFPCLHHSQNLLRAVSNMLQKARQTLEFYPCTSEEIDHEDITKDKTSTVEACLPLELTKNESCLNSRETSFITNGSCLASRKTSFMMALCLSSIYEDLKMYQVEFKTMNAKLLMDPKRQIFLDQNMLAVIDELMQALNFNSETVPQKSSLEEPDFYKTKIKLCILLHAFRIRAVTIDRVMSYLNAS
T1 sequence (looked up) 2: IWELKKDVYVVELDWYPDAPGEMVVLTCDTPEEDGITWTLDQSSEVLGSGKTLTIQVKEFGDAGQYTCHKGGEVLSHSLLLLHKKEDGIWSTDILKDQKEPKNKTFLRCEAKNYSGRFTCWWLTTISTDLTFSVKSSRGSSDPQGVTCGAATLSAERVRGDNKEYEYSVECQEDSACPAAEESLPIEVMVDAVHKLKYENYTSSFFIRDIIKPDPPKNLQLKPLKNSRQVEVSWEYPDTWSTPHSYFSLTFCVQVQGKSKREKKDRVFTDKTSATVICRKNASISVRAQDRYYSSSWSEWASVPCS
The experiment in a line: BIAcore SPR, IL-12 on chip. On the technique in general: Surface plasmon resonance follows binding to a sensor surface in real time, without labels.
With B1, the koff amounted to 0.000275 s⁻¹.

Regarding B2, the koff was 0.00063 s⁻¹.

B3: the koff turned out to be 0.000617 s⁻¹.

Consider B4, for which the koff turned out to be 0.000592 s⁻¹.

Regarding B5, the koff amounted to 0.000304 s⁻¹.

In the case of B6, the koff worked out at 0.000755 s⁻¹.

B7: the koff worked out at 0.000508 s⁻¹.

Regarding B8, the koff came to 0.000557 s⁻¹.

Consider B9, for which the koff was found to be 0.00045 s⁻¹.

For the molecule B10, the koff stood at 0.000508 s⁻¹.

With B11, the koff was found to be 0.00107 s⁻¹.

As for B12, the koff amounted to 0.000661 s⁻¹.

In a further assay the target is T2, human IL-12 (human, UniProt P29459 23-219; P29460 23-328).
T2 construct: recombinant human IL-12 heterodimer (p35/p40, disulfide-linked); also called hIL-12; rhIL-12
T2 sequence (looked up) 1: T1 sequence (looked up) 1
T2 sequence (looked up) 2: T1 sequence (looked up) 2
Description: SPR (BIAcore), IL-12 chip. An excerpt: The system utilizes the optical properties of SPR to detect alterations in protein concentrations within a dextran biosensor matrix. Proteins are covalently bound to the dextran matrix at known concentrations. […] To determine the off rate (koff), on rate (kₒₙ), association rate (Ka) and dissociation rate (Kd) constants, BIAcore kinetic evaluation software (version 2.1) was used.
The molecule B13 registered a koff of 0.0074 s⁻¹.

Turning to B14, the koff was found to be 0.00046 s⁻¹.

B15 displayed a koff of 0.0025 s⁻¹.

B16 displayed a koff of 0.00113 s⁻¹.

B17 yielded a koff of 0.00137 s⁻¹.

On to B18, for which the koff amounted to 0.00037 s⁻¹.

B19 had a koff of 0.00053 s⁻¹.

Regarding B20, the koff amounted to 0.0134 s⁻¹.

B21 displayed a koff of 0.00016 s⁻¹.

For B22, the koff worked out at 0.0164 s⁻¹.

Take B23: the koff was found to be 0.00067 s⁻¹.

Molecule B24 yielded a koff of 0.00033 s⁻¹.

On to B25, for which the koff came out at 0.0045 s⁻¹.

Another assay deals with T1, recombinant human IL-12 (rhIL-12). Description: receptor binding assay, 125I-hIL-12 on PHA blasts. As to the method: (§1) PHA blast cells isolated as described above, were washed once and resuspended in binding buffer to a cell density of 2×10⁷ cells/ml. […] The cell pellet was examined for cell bound radioactivity using a gamma counter. […] Incubations were carried out in duplicate.
In the case of B1, the IC50 amounted to 0.04 nM.

With B2, the IC50 was determined as 0.25 nM.

With B3, the IC50 was found to be 0.04 nM.

B4: the IC50 was 0.03 nM.

Take B5: the IC50 was determined as 0.03 nM.

Take B6: the IC50 was 0.06 nM.

Regarding B7, the IC50 amounted to 0.055 nM.

On to B8, for which the IC50 is 0.25 nM.

With B9, the IC50 came to 0.066 nM.

Consider B10, for which the IC50 was 0.1 nM.

For the molecule B11, the IC50 was determined as 0.35 nM.

Regarding B12, the IC50 was found to be 0.05 nM.

As to B26, the IC50 stood at 0.02 nM.

The next assay has as its target T2, human IL-12. Description: cell-based or functional assay.
Take B13: the “PHA assay IC50” value is 60 nM.

As for B14, the “PHA assay IC50” value worked out at 6 nM.

Take B16: the “PHA assay IC50” value turned out to be 3 nM.

As to B17, the “PHA assay IC50” value came out at 3 nM.

With B18, the “PHA assay IC50” value is 1 nM.

Take B19: the “PHA assay IC50” value amounted to 1.5 nM.

As for B20, the “PHA assay IC50” value stood at 200 nM.

With B27, the “PHA assay IC50” value was 600 nM.

With B21, the “PHA assay IC50” value was 0.9 nM.

Consider B22, for which the “PHA assay IC50” value was determined as 600 nM.

For the molecule B23, the “PHA assay IC50” value is 1.2 nM.

With B24, the “PHA assay IC50” value was 1.5 nM.

B25: the “PHA assay IC50” value is 30 nM and 20 nM.

For a further assay, the target named is T1, recombinant human IL-12 (rhIL-12). Description: cell-based or functional assay.
Turning to B1, the “PHA assay IC50” value was found to be 0.14 nM.

Consider B3, for which the “PHA assay IC50” value was 4.3 nM.

Regarding B4, the “PHA assay IC50” value was determined as 0.45 nM.

As to B5, the “PHA assay IC50” value came out at 0.4 nM.

In the case of B6, the “PHA assay IC50” value turned out to be 2 nM.

In the case of B7, the “PHA assay IC50” value amounted to 2.6 nM.

On to B10, for which the “PHA assay IC50” value was found to be 1 nM.

B11: the “PHA assay IC50” value came out at 10 nM.

In the case of B12, the “PHA assay IC50” value is 1 nM.

As to B26, the “IFN gamma IC50” value is 0.02 nM.

In the next assay the target is T2, human IL-12. Description: RB assay: 125I-hIL-12 binding to PHA blasts. The procedure:
as §1
B15: the IC50 worked out at 7 nM.

For B16, the IC50 was 0.9 nM.

As for B17, the IC50 is 0.08 nM.

B18 returned an IC50 of 0.14 nM.

Consider B27, for which the IC50 stood at 200 nM.

B21: the IC50 was 0.086 nM.

Turning to B22, the IC50 turned out to be 200 nM.

Turning to B23, the IC50 worked out at 0.04 nM.

In the case of B24, the IC50 is 0.06 nM.

B25 displayed a half-inhibitory concentration (IC50) of 2 nM.
